Data: patent US20210340232A1, “MONOCLONAL ANTIBODIES AGAINST HUMAN DICKKOPF3 AND USES THEREOF” (Board of Regents, The University of Texas System, priority 2018, published 2021)
“Also recorded” adds a separate entry of the source.

What was measured:
MPSCs = experiment: Proliferation of mouse PSCs by MTS assay at 7 days; assay type: cell-based
Description: (§1) FIGS. 12A-D. DKK3 expression in mouse PSCs and effects of treatment with DKKC mAb on survival. (FIG. 12A) Western blot analysis of recombinant human and mouse DKK3 under denaturing and non-denaturing conditions using JM6-6-1 mAb. (FIG. 12B) Expression of murine DKK3 in murine PSCs (MPSC) or 3T3 cells was determined by RT-PCR. 18S was used as loading control. (FIG. 12C) Proliferation of MPSCs treated with DKK3 mAb was measured at 7 days by MTS assay. ***p<0.001 vs. PBS. (FIG. 12D) Pdx1-Cre; Kras LSL-G12D;Trp53fl/+ model of PDAC was treated with DKK3 mAb JM6-6-1 or control mAb JM4-74 (5 mg/kg i.p. q5d). Kaplan-Meier survival curves are shown (log rank test). At 0% survival, the right line is JM6-6-1, the middle lines is PBS, and the left line is Control Ab.
Cell-based assays. Cell proliferation was measured by the MTS assay (Promega, Madison, Wis.). Cell migration and invasion studies with stimulation by recombinant human DKK3 (R&D, Minneapolis, Minn.) were performed using 6.5-mm Transwell® with 8.0-μm pore membrane Insert (Corning Incorporated) and BioCoat Matrigel-coated invasion chambers (BD Biosciences, Bedford, Mass.).

BxPC3 orthotopic tumors = experiment: Orthotopic BxPC3 tumors without HPSCs in nude mice; assay type: in vivo, mouse; details: BxPC3 alone; 5 mg/kg i.p. once every 5 days; vs PBS or isotype control mAb
Description: FIGS. 11A-C. DKK3 expression in autochthonous model of PDAC and effects of DKK3 mAb on cell surface binding of DKK3 and orthotopic model. (FIG. 11A) DKK3 expression was measured by qPCR in pancreatic tumors from P48-Cre; Kras LSL-G12D;Trp53fl/fl and P48-Cre; Kras LSL-G12D;Trp53fl/+ mice that are either wild type DKK3 or heterozygous or homozygous DKK3-null. Relative expression of DKK3 mRNA in DKK3+/− hetero mice is 53% of DKK3^+/+ mice. (FIG. 11B) DKK3 cell surface binding was assessed by incubating BxPC3 or L3.6p1 cells with His-tagged rhDKK3 (10 μg/ml) with or without JM6-6-1 (70 μg/ml) and positive cells were sorted by flow cytometry. (FIG. 11C) Mice bearing orthotopic BxPC3 tumors were treated with DKK3 mAb JM6-6-1 (5 mg/kg i.p. once every 5 days). Overall tumor progression was measured every 3-4 days by IVIS imaging.
An orthotopic nude mouse model of PDAC using BxPC3 cancer cells labeled with firefly luciferase (BxPC3-FL) co-injected with HPSCs has been previously described (Hwang et al., 2008). Mice received intrapancreatic injections of BxPC3-FL (1×10^6 per mouse) with HPSC-shControl or HPSC-shDKK3 in a tumor-to-stroma ratio of 1:0 or 1:3 in 50-μL of HBSS and tumor growth was monitored using IVIS imaging (Hwang et al., 2008). In addition, a syngeneic immunocompetent DKK3 null model was used, provided by Dr. C. […]

4T1 TNBC cells = experiment: 4T1 orthotopic mouse model of TNBC; assay type: in vivo
Description: (FIG. 13A) DKK3 expression was measured by RT-PCR in TNBC fibroblasts (BCF), human pancreatic stellate cells (HPSC) from pancreatic adenocarcinoma (PDAC), BxPC (PDAC cancer cell) and water control. (FIG. 13B) DKK3 protein was measured by Western blotting in BCF from TNBC, in ER-positive breast cancer cells, and in TNBC cancer cell lines. (FIG. 13C) DKK3 protein was measured in patient-derived xenograft (PDX) tumors from TNBC relative to recombinant human DKK3 (rhDKK3) and conditioned medium from HPSC (HPSC-CM). Actin was used as loading control. […] Data is pooled from TCGA, EGA and GEO.
FIGS. 14A-C. Treatment of TNBC orthotopic model with DKK3 mAb. […] Tumor growth was measured by calipers at day 33 after starting treatment and compared to initial tumor size prior to treatment. (FIG. 14B) 4T1 primary tumors and metastases were imaged using IVIS at day 33 after starting treatment. (FIG. 14C) Luciferase signal from 4T1 metastases was measured by IVIS at day 33 after starting treatment.
Treatment of TNBC orthotopic models with DKK3 mAb was also tested. An orthotopic model using 4T1 TNBC cells labeled with firefly luciferase was treated with PBS, a control antibody, or JM6-6-1. […] The mice were also imaged to detect the primary tumors and any metastases (FIG. 14B).

murine DKK3 = murine DKK3 (Mus musculus, UniProt Q9QUN9); experiment: Non-denaturing Western blot of recombinant DKK3 with JM6-6-1; assay type: binding
Description: as §1
Human and murine DKK3 share 83% protein sequence homology by BLAST analysis and therefore it was anticipated that it was likely that JM6-6-1 could cross-react with host DKK3. […] When KPC mice (P48-Cre; Kras^LSL-G12D;Trp53^fl/fl) were treated with JM6-6-1 (red solid line, FIG. 5H), median survival increased by 43% from 43 to 61.5 days compared to PBS or isotype control mAb (p=0.005, HR 0.24, 95% CI 0.01-0.30; FIG. 5H).

Chain of murine DKK3 (Q9QUN9 23-349): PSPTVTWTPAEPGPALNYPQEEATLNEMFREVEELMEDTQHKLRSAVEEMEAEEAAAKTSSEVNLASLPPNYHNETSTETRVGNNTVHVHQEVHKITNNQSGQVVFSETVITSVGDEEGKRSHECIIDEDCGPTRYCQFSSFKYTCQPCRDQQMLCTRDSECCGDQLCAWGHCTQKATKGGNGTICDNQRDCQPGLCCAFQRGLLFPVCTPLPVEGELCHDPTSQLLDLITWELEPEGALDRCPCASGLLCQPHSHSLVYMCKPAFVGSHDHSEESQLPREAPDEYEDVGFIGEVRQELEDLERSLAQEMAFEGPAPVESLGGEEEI

B1: JM6-6-1: monoclonal antibody against human DKK3; heavy chain variable SEQ ID NO: 19, light chain variable SEQ ID NO: 20 (antibody, V domains shown)
VH: EVKLVESGGGLVKPGGSLKLSCAASGFTFTIEYMAWIRQTPEKRLEWVASISSGGDDIYYADNVKGRFTISRDNAKNTLYLQMSSLKSEDTAIYYCSRSLSDWGQGTTLTVSSAKTTPPSDYPLA
VL: MTQTPLSLPVSLGDQASISCRSSQSILHSNGHTYLEWYLQKPGQSPKLLIYKVSNRFSGVPDRFSGSGSGTDFTLKISRVEAEDLGVYYCFQGSHVPFTFGSGTKLEIERADAAQ
- proliferation of mouse PSCs (MPSCs): inhibited proliferation
- tumor response without HPSCs (BxPC3 orthotopic tumors): no significant change
- luciferase signal from 4T1 metastases (4T1 TNBC cells; 5 mg/kg ip q5 days, IVIS day 33): prevented metastases
- tumor size at day 33 after starting treatment compared to controls (4T1 TNBC cells; 5 mg/kg ip q5 days, calipers): significantly smaller
- survival relative to control antibody and PBS (4T1 TNBC cells; 4T1 mouse model of TNBC): improved survival; also recorded: increased survival
- cross-reactivity with murine DKK3 (murine DKK3): recognizes murine DKK3 although more weakly than human DKK3
